Literature values as cited in patent US12268667B2, “JAK1 pathway inhibitors for the treatment of prurigo nodularis” (Incyte Corporation, priority 2021, dated 2025).

How the values were obtained:
[1] = tested on: IL-31; conditions: cited from earlier work
[2] = tested on: PN lesional skin; conditions: PN skin cultured with nemolizumab; cited from earlier work

B1: nemolizumab (antibody, chains of the INN, looked up)
heavy: QVQLVQSGAEVKKPGASVKVSCKASGYTFTGYIMNWVRQAPGQGLEWMGLINPYNGGTDYNPQFQDRVTITADKSTSTAYMELSSLRSEDTAVYYCARDGYDDGPYTLETWGQGTLVTVSSASTKGPSVFPLAPSSKSTSGGTAALGCLVKDYFPEPVTVSWNSGALTSGVHTFPAVLQSSGLYSLSSVVTVPSSNFGTQTYTCNVDHKPSNTKVDKTVERKSCVECPPCPAPPVAGPSVFLFPPKPKDTLMISRTPEVTCVVVDVSQEDPEVQFNWYVDGVEVHNAKTKPREEQFNSTFRVVSVLTVVHQDWLNGKEYKCKVSNKGLPAPIEKTISKTKGQPREPQVYTLPPSQEEMTKNQVSLTCLVKGFYPSDIAVEWESNGQPENNYKTTPPMLDSDGSFFLYSKLTVDKSRWQEGNVFSCSVMHEALHNHYTQKSLSLSP
light: DIQMTQSPSSLSASVGDRVTITCQASEDIYSFVAWYQQKPGKAPKLLIYNAQTEAQGVPSRFSGSGSGTDFTLTISSLQPEDFATYYCQHHYDSPLTFGGGTKVEIKRTVAAPSVFIFPPSDEQLKSGTASVVCLLNNFYPREAKVQWKVDNALQSGNSQESVTEQDSKDSTYSLSSTLTLSKADYEKHKVYACEVTHQGLSSPVTKSFNRGEC
effect on pruritus and skin lesions in PN patients [1]: improvement in pruritus and skin lesions
IL-17 levels in lesional skin [2]: reduction in IL-17 levels
